The results in this text go back to paper PMC2806950.

The target of the test is T1, Ocr (overcome classical restriction) protein of bacteriophage T7, unmodified (bacteriophage T7), P03775.
T1 chain: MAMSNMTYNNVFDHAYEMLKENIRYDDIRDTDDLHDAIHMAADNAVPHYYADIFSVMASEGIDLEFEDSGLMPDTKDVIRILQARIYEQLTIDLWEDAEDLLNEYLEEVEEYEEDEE
The test can be described thus: native gel or EMSA; blue native PAGE (NativePAGE Novex 4-16% Bis-Tris) of unmodified Ocr; also native 15% PAGE, non-denaturing reducing conditions. To be noted: remark: other sources report otherwise. A general note: In EMSA bound probe runs differently from free probe, usually more slowly.

B1: Ocr (overcome classical restriction) protein of bacteriophage T7, unmodified, P03775 1-117 (natural protein)
chain: T1 chain
For the molecule B1, the stoichiometry N (commonly a count of units in the complex or per binding partner) was determined as 4.
